The source of these data is publication PMC5039005.

Assay [1] concerns the target Str-Ct.Samp1(1–180) (Chaetomium thermophilum). As to the kind of experiment: pull-down.
Assay [2] has as its target Samp1-YFP (human) (UniProt Q5SNT2). As to the kind of experiment: cross-linking + co-IP.

Regarding “His6-Ran (from UniProt P62826 1-216) (natural protein)”, in assay [1], the fold binding, RanGTP against RanGDP was 1.8 fold and the percent of RanGTP pulled down at a 1:1 molar ratio is 40%.
On to “Ran (endogenous in tsBN2 and BHK-21 cells) (from UniProt A0A8C2MF66 1-216) (natural protein)”, for which, in assay [2], the percent of total RanGTP bound in live cells came to 1%.
